How the values were obtained:
[1] = target: T1, GST-Synm-CT (fusion protein of the carboxy-terminus of synemin, amino acids 1464-1565, with GST) (Homo sapiens (Human), UniProt O15061); assay: Western blot overlay
T1 chain: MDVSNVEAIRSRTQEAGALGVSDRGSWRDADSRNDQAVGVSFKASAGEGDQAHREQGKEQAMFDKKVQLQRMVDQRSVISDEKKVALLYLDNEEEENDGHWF

[2] = target: T2, GST-Synm-CTΔ (carboxy-terminally truncated synemin, amino acids 1464-1533, fused to GST) (Homo sapiens (Human), UniProt O15061); assay: Western blot overlay
T2 chain: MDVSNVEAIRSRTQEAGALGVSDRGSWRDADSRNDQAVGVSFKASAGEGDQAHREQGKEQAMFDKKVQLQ

binding result [1]: binds | binding result [2]: no binding
B1: T7-tagged PDZ domain of SYNPO2 (protein)
chain: MGTGDFICISMTGGAPWGFRLQGGKEQKQPLQVAKIRNQSKASGSGLCEGDEVVSINGNPCADLTYPEVIKLMESITDSLQMLIKRPSSGISEALISENENKNLEHLTHGGYVESTTLQIRPATKTQCTEFFLAPVKTEVPLAENQRSGPDCAGSLKEETGPSYQRAPQMPDSQRGRVAE

Reference: PMC10778272 (2023)
